Data on 2 substances can be found in patent US20240400703A1.

As a reminder, the EC50 (read off the curve) is the concentration giving half of the maximal effect. Low readings indicate an effect from little substance, high ones a need for much substance.

Test [1] addresses recombinant human OX40 fused to a His-tag (Acro Biosystems, cat. no. OX0-H5224) (human) (UniProt P43489). The test is described as follows: BLI cross-block; first Ab (competitor): IgG1-CD134-INCAGN1949.
For test [2] the target is unchanged. The test is described as follows: BLI cross-block; first Ab (competitor): IgG1-CD134-007.
Test [3] has the same target. The test is described as follows: BLI cross-block; first Ab (competitor): IgG1-CD134-RG7888.
Test [4] shares this target. The test is described as follows: BLI cross-block; first Ab (competitor): IgG1-CD134-11D4.
For test [5] the target is unchanged. In words: BLI cross-block; first Ab (competitor): IgG1-CD134-012.
The target is the same in test [6]. In words: BLI cross-block; first Ab (competitor): IgG1-CD134-003-HC6LC2-RR.
The target is the same in test [7]. The test is described as follows: BLI cross-block; first Ab (competitor): IgG1-CD134-A4453.
For test [8] the target is unchanged. The test is described as follows: BLI cross-block; first Ab (competitor): IgG1-CD134-Hu106.
Test [9] has the same target. In words: BLI cross-block; first Ab (competitor): IgG1-CD134-SF2.
Test [10] shares this target. In words: BLI cross-block; first Ab (competitor): IgG1-CD134-h3C8.
Test [11] concerns the target human OX40 with mouse CRD1 (human with mouse CRD1) (UniProt P43489). In words: flow cytometry, transfected ExpiCHO-S cells, gMFI (PE). On the technique in general: A flow cytometer gives signals particle by particle.
Test [12] has as its target recombinant human OX40 fused to a His-tag (Acro Biosystems, cat. no. OX0-H5224) (human) (UniProt P43489). The test is described as follows: BLI cross-block; first Ab (competitor): IgG1-CD134-GBR830.
For test [13] the target is unchanged. In words: BLI cross-block; first Ab (competitor): IgG1-CD134-MEDI0562.
For test [14] the target is unchanged. In words: BLI cross-block; first Ab (competitor): IgG1-CD134-ABBV368.
For test [15] the target is unchanged. The test is described as follows: BLI cross-block; first Ab (competitor): IgG1-CD134-49B4-RRE.
Test [16] has the same target. The test is described as follows: BLI cross-block; first Ab (competitor): IgG1-CD134-003.
The target is the same in test [17]. The test is described as follows: BLI cross-block; first Ab (competitor): IgG1-CD134-IBI101.

recombinant human OX40 fused to a His-tag (Acro Biosystems, cat. no. OX0-H5224) (human), sequence (P43489 29-214 limits assumed): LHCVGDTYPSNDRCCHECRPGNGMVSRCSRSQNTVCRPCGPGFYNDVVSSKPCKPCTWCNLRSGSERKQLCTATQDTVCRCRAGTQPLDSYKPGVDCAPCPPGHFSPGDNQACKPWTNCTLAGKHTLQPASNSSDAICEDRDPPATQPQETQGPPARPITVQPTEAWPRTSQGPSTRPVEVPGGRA
IgG1-CD134-IBI101 (antibody), sequence (VH): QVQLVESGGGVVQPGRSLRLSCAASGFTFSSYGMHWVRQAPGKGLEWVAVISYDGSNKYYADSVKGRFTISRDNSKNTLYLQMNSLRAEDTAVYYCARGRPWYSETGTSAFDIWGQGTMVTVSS
IgG1-CD134-IBI101 (antibody), sequence (VL): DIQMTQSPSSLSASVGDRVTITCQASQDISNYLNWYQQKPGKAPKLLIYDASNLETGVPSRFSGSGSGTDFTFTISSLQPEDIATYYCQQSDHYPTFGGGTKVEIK
human OX40 with mouse CRD1 (human with mouse CRD1), sequence (P43489 other isoform, or with tags, fused parts or gaps limits assumed): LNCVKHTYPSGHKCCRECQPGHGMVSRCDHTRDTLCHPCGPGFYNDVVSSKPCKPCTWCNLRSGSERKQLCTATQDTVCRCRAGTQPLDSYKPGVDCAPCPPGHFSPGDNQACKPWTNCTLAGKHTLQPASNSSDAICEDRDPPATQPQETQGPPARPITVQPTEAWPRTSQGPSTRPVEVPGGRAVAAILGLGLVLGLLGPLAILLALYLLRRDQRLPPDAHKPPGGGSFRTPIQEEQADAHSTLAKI

Consider IgG1-CD134-IBI101 (antibody), for which the association response in [1] was 0.02 nm; in test [2], 0.02 nm; in test [3] it was 0.31 nm; in test [4], 0.15 nm; in test [5], 0.82 nm; in [6] it was 1.23 nm. Besides, the association response in test [7] was 0.24 nm; in test [8] it was -0.02 nm; in test [9], 0.07 nm; in test [10], -0.03 nm; in test [12] it was 0.01 nm; in test [13] it was 0.26 nm. Besides, the association response in test [14] was -0.02 nm; in test [15] it was 0 nm; in test [16], 0.74 nm; in test [17], 0.01 nm. Moreover, the EC50 (read off the curve) in test [11] turned out to be 0.07 µg/mL.
As for IgG1-CD134-INCAGN1949 (antibody), the association response turned out to be 0 nm in [1]; 0.55 nm in test [2]; 0.01 nm in test [3]; 0.11 nm in [4]; 0.73 nm in [5]; 1.74 nm in [6]. Further, the association response in test [7] is 0.25 nm; in test [8], -0.01 nm; in [9], 0.02 nm; in test [10] it was -0.02 nm; in test [12], 0.01 nm; in [13], 0.01 nm. For the same substance, the association response in test [14] is -0.03 nm; in test [15] it was 0 nm; in test [16], 1.39 nm; in test [17], 0.01 nm. The same substance showed an EC50 (read off the curve) in test [11] of 0.09 µg/mL.
